Reference: patent US5641746A, “Animal model for AIDS” (Rutgers State University of New Jersey, priority 1994, dated 1997)

Experiments:
[1] = test system: rats; test: Intrathecal VIP in rats; format: in vivo, rat
Experimental: Each animal was treated with VIP or Ringer's solution in a counterbalanced fashion. […] At a dose of 25 ug VIP/5 ul (5 ug/ul), there were 4 of 6 documented deaths. At 60 ug VIP/5 ul (12 ug/ul), there were 3 of 5 documented deaths.

[2] = test system: gp120 binding to brain tissue; conditions: in vitro; cited from earlier work
[3] = test system: HIV; conditions: in vitro; cited from earlier work
[4] = test system: neurotoxic effects of gp120; conditions: on cells and in animals; cited from earlier work
[5] = test system: intracellular free calcium; conditions: cited from earlier work

Compound	Documented deaths ([1]; 25 ug VIP/5 ul (5 ug/ul) IT)	Documented deaths ([1]; 60 ug VIP/5 ul (12 ug/ul) IT)	Morbidity ([1]; IT VIP)	Symptoms shown by all VIP-treated animals ([1]; IT VIP, all doses)	Concentration shown to be effective to induce the desired symptoms ([1]; IT, rats) [µg/µL]	AIDS-like symptoms in addition to neurological deficit ([1]; VIP 25 ug/5 ul (5 ug/ul) IT)	Effect on binding of gp120 [2]	Effect on HIV replication in cell culture [3]	Effect on the neurotoxic effects of gp120 [4]	Effect on gp 120-CD4 induced increase of intracellular free calcium [5]
Vasoactive Intestinal Peptide [VIP]	4 of 6	3 of 5	morbidity was observed	diarrhea, weight loss, monoparesis, lower limb deficits and mucous secretions	2.55 to 12	diarrhea, hind limb rigidity and damage to spinal tissue	inhibit	inhibit	potently inhibit	–
COCCOC(=O)C1=C(C)NC(C)=C(C(=O)OC(C)C)C1c1cccc([N+](=O)[O-])c1 (stereo not shown) [nimodipine]	–	–	–	–	–	–	–	–	–	antagonize this effect
